Measured values published in publication PMC3184076 (PLoS ONE, 2011).

Legend:
JR-FL gp140 = molecular target: T1, JR-FL gp140 (HIV-1 subtype B, JR-FL, UniProt Q75760, strain); assay: ELISA
T1 construct: also called JR-FL gp140 envelope protein; source: generated as described [41]

Centromere B autoantigen = molecular target: T2, Centromere B autoantigen (Homo sapiens (assumed), UniProt P07199); assay: AtheNA Multi-Lyte ANA II Test Kit (autoantigen immunoassay); kit of Zeus Scientific, per the manufacturer's instructions
T2 construct: also called centromere B autoantigens
T2 sequence (P07199 whole entry): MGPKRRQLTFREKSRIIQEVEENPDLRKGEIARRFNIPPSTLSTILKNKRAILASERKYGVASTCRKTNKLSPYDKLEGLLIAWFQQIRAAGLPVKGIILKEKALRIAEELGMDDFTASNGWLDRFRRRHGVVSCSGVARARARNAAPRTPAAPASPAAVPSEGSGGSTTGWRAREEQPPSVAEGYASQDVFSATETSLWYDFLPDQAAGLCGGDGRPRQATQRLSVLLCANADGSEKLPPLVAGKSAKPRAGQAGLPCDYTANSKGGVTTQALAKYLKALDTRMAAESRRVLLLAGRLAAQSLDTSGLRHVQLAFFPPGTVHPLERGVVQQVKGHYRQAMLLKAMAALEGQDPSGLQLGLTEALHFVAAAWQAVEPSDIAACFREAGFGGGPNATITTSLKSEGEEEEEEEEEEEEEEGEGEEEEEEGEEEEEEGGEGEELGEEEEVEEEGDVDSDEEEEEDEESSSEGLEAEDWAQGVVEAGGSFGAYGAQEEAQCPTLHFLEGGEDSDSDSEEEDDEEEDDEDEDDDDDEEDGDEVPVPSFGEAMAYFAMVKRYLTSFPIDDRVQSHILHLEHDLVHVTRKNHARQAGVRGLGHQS

[1] = molecular target: T3, MPR.03 biotinylated peptide (HIV-1, synthetic MPER sequence, strain …); assay: SPR; conditions: both partners purified
T3 construct: also called MPR.03 peptide; MPER peptide; source: synthetic peptide, bought: CPC Scientific Inc

MPER26 peptide = MPER26 peptide (HIV-1, strain  (residues …, biotin on the N-terminus)); assay: SPR; conditions: both partners purified
MPER656 peptide = molecular target: T4, MPER656 peptide (HIV-1, strain  (residues …)); assay: SPR; conditions: both partners purified
T4 construct: also called wild type MPER656 peptide
T4 chain: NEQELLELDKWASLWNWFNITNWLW

B1: CAP206-CH12 recombinant human monoclonal antibody (antibody, V domains shown)
VH: QVQLVQSGAEVKKPGSSVKLSCKASGGTFGSYSVTWVRQAPGQTFEWVGRIVPWVGVPNYAPKFQGRVTITADKSSTVYMELTSLRFEDTAVYYCATAYEASGLSYYYYMDDWGKGTTVTVSS
VL: EIVLTQSPGTLSLSPGERATLSCRASQSVTSSYLAWFRHKPGQAPRLLIYGASYRGTGIPDRISGSGSGTDFTLTISRLEPEDFAVYYCQHYGGSPGMYTFGQGTRLEIK
notes: also called CAP206-CH12 mAb; CAP-206-CH12 mAb
JR-FL gp140
  binding result: no binding
Centromere B autoantigen
  binding result: binds
[1]
  Kd: 7.3 nM
MPER26 peptide
  Kd: 4.95 nM
MPER656 peptide
  Kd: 5.15 nM
